Laboratory results from doi:10.1101/2025.01.16.633226.
Read-outs that look alike come from different tables or passages of the source.

T1: LARP6 (ITC) (UniProt Q9BRS8 70-295)
T1 sequence: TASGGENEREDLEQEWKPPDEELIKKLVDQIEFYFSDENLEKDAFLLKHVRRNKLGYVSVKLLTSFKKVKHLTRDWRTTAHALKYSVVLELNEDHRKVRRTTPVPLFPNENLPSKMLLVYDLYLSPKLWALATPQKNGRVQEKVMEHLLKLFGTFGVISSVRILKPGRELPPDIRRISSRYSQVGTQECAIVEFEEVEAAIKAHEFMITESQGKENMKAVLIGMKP

T2: LARP6 (70-295) (UniProt Q9BRS8 70-295)
T2 sequence: T1 sequence

B1: LRP1-CDS (ssRNA)
RNA: CUGCAUGUGCACAGCCGGCUAUAGCCUCCGGAGUGGCCAGCAGGCCUGCGAGGGCGUAGG
B2: COL1A1-TIS (structured_RNA)
RNA: CCAGCCACAAAGAGUCUACAUGUCUAGGGUCUAGACAUGUUCAGCUUUGUGGACCUCCGG
B3: CCNI-5'UTR (ssRNA)
RNA: GGGUCAUCAUGGAACUAAUUCGCUGACCGACCCAGCGGCCGCAGCCGUGCGUCCCGCUCG
B4: COL5A1-CDS (ssRNA)
RNA: CUGCUGCUGCUGCUGUGGGCGCCGCCUCCGAGCCGCGCAGCUCAGCCAGCAGAUCUCCUG

How the values were obtained:
LARP6 (ITC) [1] = target: T1, LARP6 (ITC); assay: ITC
LARP6 (70-295) [2] = target: T2, LARP6 (70-295); assay: TR-FRET competition
LARP6 (ITC) [3] = target: T1, LARP6 (ITC); assay: ITC; remark: listed apart in the source
LARP6 (70-295) [4] = target: T2, LARP6 (70-295); assay: TR-FRET competition; remark: listed apart in the source
LARP6 (ITC) [5] = target: T1, LARP6 (ITC); assay: ITC; remark: listed apart in the source
LARP6 (70-295) [6] = target: T2, LARP6 (70-295); assay: TR-FRET competition; remark: listed apart in the source

Binder	IC50 (LARP6 (70-295) [2]) [nM]	binding result (LARP6 (ITC) [3])	binding result (LARP6 (70-295) [4])	other results
CCACAAAGAGUCUACAUGUCUAGGGUCUAGACAUGUUCAGCUUUGUGG (structured_RNA) [A1 (COL1A1 5'SL)]	6.84			Kd (LARP6 (ITC) [1]): > 400 nM
B1		binds	binds	
B2	2.71			Kd (LARP6 (ITC) [5]): 400 nM
B3				binding result (LARP6 (ITC) [5]): no binding; binding result (LARP6 (70-295) [6]): no binding
B4		binds	binds	
